Experimental data published in article PMC4866770 (PLoS ONE, 2016).

Target: amyloid precursor protein (APP) (human (endogenous in HEK293), UniProt P05067 18-770)
Test: cell-based or functional assay

Sequence of amyloid precursor protein (APP) (P05067 18-770): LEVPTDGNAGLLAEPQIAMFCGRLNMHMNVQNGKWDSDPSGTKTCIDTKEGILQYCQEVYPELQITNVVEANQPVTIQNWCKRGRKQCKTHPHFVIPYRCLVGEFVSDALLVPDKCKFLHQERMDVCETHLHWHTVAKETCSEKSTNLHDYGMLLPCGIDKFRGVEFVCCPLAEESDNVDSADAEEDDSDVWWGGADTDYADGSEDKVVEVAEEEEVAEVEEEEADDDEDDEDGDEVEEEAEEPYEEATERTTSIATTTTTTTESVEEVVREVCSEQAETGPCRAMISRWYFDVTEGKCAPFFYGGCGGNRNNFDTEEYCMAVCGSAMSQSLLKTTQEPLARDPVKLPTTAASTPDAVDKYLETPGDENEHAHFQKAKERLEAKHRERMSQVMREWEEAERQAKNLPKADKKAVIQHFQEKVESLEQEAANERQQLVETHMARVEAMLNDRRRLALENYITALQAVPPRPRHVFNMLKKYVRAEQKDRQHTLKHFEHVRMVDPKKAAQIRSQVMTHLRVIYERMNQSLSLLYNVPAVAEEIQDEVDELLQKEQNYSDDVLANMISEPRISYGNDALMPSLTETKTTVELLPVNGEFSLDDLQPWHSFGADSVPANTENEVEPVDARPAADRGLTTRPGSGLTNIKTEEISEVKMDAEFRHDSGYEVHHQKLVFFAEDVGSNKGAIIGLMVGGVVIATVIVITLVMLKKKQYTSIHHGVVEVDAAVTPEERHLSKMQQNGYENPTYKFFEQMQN

GAL4-dependent firefly luciferase reporter in HEK293 with pMST-APP (full-length APP fused to the GAL4 DNA binding domain): increase of APP transcriptional activity: ~14 fold
B1: FLAG-Fe65 (natural protein, human, UniProt O00213-2 1-708, looked up)
chain: MSVPSSLSQSAINANSHGGPALSLPLPLHAAHNQLLNAKLQATAVGPKDLRSAMGEGGGPEPGPANAKWLKEGQNQLRRAATAHRDQNRNVTLTLAEEASQEPEMAPLGPKGLIHLYSELELSAHNAANRGLRGPGLIISTQEQGPDEGEEKAAGEAEEEEEDDDDEEEEEDLSSPPGLPEPLESVEAPPRPQALTDGPREHSKSASLLFGMRNSAASDEDSSWATLSQGSPSYGSPEDTDSFWNPNAFETDSDLPAGWMRVQDTSGTYYWHIPTGTTQWEPPGRASPSQGSSPQEESQLTWTGFAHGEGFEDGEFWKDEPSDEAPMELGLKEPEEGTLTFPAQSLSPEPLPQEEEKLPPRNTNPGIKCFAVRSLGWVEMTEEELAPGRSSVAVNNCIRQLSYHKNNLHDPMSGGWGEGKDLLLQLEDETLKLVEPQSQALLHAQPIISIRVWGVGRDSGRDFAYVARDKLTQMLKCHVFRCEAPAKNIATSLHEICSKIMAERRNARCLVNGLSLDHSKLVDVPFQVEFPAPKNELVQKFQVYYLGNVPVAKPVGVDVINGALESVLSSSSREQWTPSHVSVAPATLTILHQQTEAVLGECRVRFLSFLAVGRDVHTFAFIMAAGPASFCCHMFWCEPNAASLSEAVQAACMLRYQKCLDARSQASTSCLPAPPAESVARRVGWTVRRGVQSLWGSLKPKRLGAHTP
